This data set relates to Pho7 DBD, Pho7(279-368) (Schizosaccharomyces pombe). In words: EMSA. Conditions: EMSA: 50 mM Tris-HCl pH 7.4, 10% glycerol, 340 ng poly(dI-dC), 0.6-1 pmol DNA in 10 ul, about 50 mM NaCl and 0.02% Triton X-100 from 2 ul protein diluent …; for binding signal: 27 ng Pho7 DBD, 1 pmol DNA. On the technique in general: Mobility shift assays separate free from complexed probe on a gel.

Turning to “CAACAGGGGAATAGTCGCTGCTTGAAACATCCGGAAATAG (double strand) [pho1 site 1 40-bp DNA]”, for the setting “8.3-66 ng Pho7 DBD”, the binding signal (fold affinity vs site 2 (N5)) stood at 0.5.
For “CCGGAAATAGTTTTATTCGGAAATTAAAAACAAGTTTATGGCG (double strand) [pho1 site 2 43-bp DNA]”, the binding signal (fold affinity vs site 1 (N4)) (8.3-66 ng Pho7 DBD) is 2.
Regarding “TTTCCTTCGGACAAACAAATCAGT (double strand) [tgp1 24-bp Mut2 (TT to AA)]”, the binding signal stood at 45 % DNA bound.
On the same count and under the same terms, with “TTTCCTTCGGACATTCAAATCAGT (double strand) [tgp1 24-bp WT]” the figure was 81 % DNA bound; with “TTTCCTTCGGACATTCTTATCAGT (double strand) [tgp1 24-bp Mut3 (AA to TT)]”, 23 % DNA bound.

For the origin of these results see PMC5559640.
